According to patent US20040091878:

Tests used:
Assay in all cases: EMSA
[1] = tested on: Clone 6 ZFP (6-finger) (artificial); conditions: probe flanks not given; 0.1 mM ZnCl2
[2] = tested on: Clone 7 ZFP (6-finger) (artificial); conditions: probe flanks not given; Table 5 prints TAGGTGGCATTGGGTGCTC, listing SEQ 67 tacgtggcattgggtgctc
[3] = tested on: Clone 5 ZFP (BCTV whole L1, 6-finger) (artificial); conditions: probe 0.03 fmol per 10 ul; vast majority bound at 3 pM; 0.1 mM ZnCl2

**Q.** Which Kd [1] does the source give for “AGTAAGGTAGGAGATGATA (double strand) [Clone 6 target]” here?
**A.** < 3 pM

**Q.** With “TACGTGGCATTGGGTGCTC (double strand) [Clone 7 target]” as the sequence, how does the Kd [2] read?
**A.** < 3 pM

**Q.** “TATATATATTGGGTGCTTTGGGTGCTCTATATATA (double strand) [BCTV whole L1 probe]” was tested. Which Kd [3] did it give?
**A.** < 3 pM
